Among the data in paper PMC8558838 (The Journal of Experimental Medicine, 2021) are ratio to parent values, retold here.

Sequences and labels used below:
B1: full-length mouse LIGHT, on cells (mLIGHT-IRES-EGFP) [mouse] / full-length WT mouse HVEM-mCherry, on cells [mouse] (parent complex)
chain 1: MESVVQPSVFVVDGQTDIPFRRLEQNHRRRRCGTVQVSLALVLLLGAGLATQGWFLLRLHQRLGDIVAHLPDGGKGSWEKLIQDQRSHQANPAAHLTGANASLIGIGGPLLWETRLGLAFLRGLTYHDGALVTMEPGYYYVYSKVQLSGVGCPQGLANGLPITHGLYKRTSRYPKELELLVSRRSPCGRANSSRVWWDSSFLGGVVHLEAGEEVVVRVPGNRLVRPRDGTRSYFGAFMV
chain 2: QPSCRQEEFLVGDECCPMCNPGYHVKQVCSEHTGTVCAPCPPQTYTAHANGLSKCLPCGVCDPDMGLLTWQECSSWKDTVCRCIPGYFCENQDGSHCSTCLQHTTCPPGQRVEKRGTHDQDTVCADCLTGTFSLGGTQEECLPWTNCSAFQQEVRRGTNSTDTTCSSQVVYYVVSILLPLVIVGAGIAGFLICTRRHLHTSSVAKELEPFQEQQENTIRFPVTEVGFAETEEETASN

Variants of B1 are the subject of the assay. Description: flow cytometry, cell–cell method.
As to chain 2 QPSCRQEEFLVGDECCPMCNPGYHVKQVCSEHTGTVCAPCPPQTYTAHANGLSKCLPCGVCDPDMGLLTWQECSSWDDTVCRCIPGYFCENQDGSHCSTCLQHTTCPPGQRVEKRGTHDQDTVCADCLTGTFSLGGTQEECLPWTNCSAFQQEVRRGTNSTDTTCSSQVVYYVVSILLPLVIVGAGIAGFLICTRRHLHTSSVAKELEPFQEQQENTIRFPVTEVGFAETEEETASN [chain 2 K77D], the ratio to parent was 1.4. Consider chain 2 QPSCRQEEFLVGDECCPMCNPGYHVKQVCSEHTGTVCAPCPPQTYTAHANGLSKCLPCGVCDPDMGLLTWQECSSWADTVCRCIPGYFCENQDGSHCSTCLQHTTCPPGQRVEKRGTHDQDTVCADCLTGTFSLGGTQEECLPWTNCSAFQQEVRRGTNSTDTTCSSQVVYYVVSILLPLVIVGAGIAGFLICTRRHLHTSSVAKELEPFQEQQENTIRFPVTEVGFAETEEETASN [chain 2 K77A], for which the ratio to parent turned out to be 1.8. Then chain 2 QPSCRQEEFLVGDECCPACNPGYHVKQVCSEHTGTVCAPCPPQTYTAHANGLSKCLPCGVCDPDMGLLTWQECSSWKDTVCRCIPGYFCENQDGSHCSTCLQHTTCPPGQRVEKRGTHDQDTVCADCLTGTFSLGGTQEECLPWTNCSAFQQEVRRGTNSTDTTCSSQVVYYVVSILLPLVIVGAGIAGFLICTRRHLHTSSVAKELEPFQEQQENTIRFPVTEVGFAETEEETASN [chain 2 M18A], with 1.2; and chain 2 QPSCRQEEFLVGDECCPDCNPGYHVKQVCSEHTGTVCAPCPPQTYTAHANGLSKCLPCGVCDPDMGLLTWQECSSWKDTVCRCIPGYFCENQDGSHCSTCLQHTTCPPGQRVEKRGTHDQDTVCADCLTGTFSLGGTQEECLPWTNCSAFQQEVRRGTNSTDTTCSSQVVYYVVSILLPLVIVGAGIAGFLICTRRHLHTSSVAKELEPFQEQQENTIRFPVTEVGFAETEEETASN [chain 2 M18D], with 0.9; and chain 2 QPSCRQEEFLVGDECCPMCNPGYHVKQVCSEHTGTVCAPCPPQTYTAHANGLSKCLPCGVCDPDMGLLTWQECSSWKDTVCRCIPGYFCENQDGSHCSACLQHTTCPPGQRVEKRGTHDQDTVCADCLTGTFSLGGTQEECLPWTNCSAFQQEVRRGTNSTDTTCSSQVVYYVVSILLPLVIVGAGIAGFLICTRRHLHTSSVAKELEPFQEQQENTIRFPVTEVGFAETEEETASN [chain 2 T99A], with 0.8.

Regarding chain 2 QPSCRQEEFLVGDECCPMCNPGYHVKQVCSEHTGTVCAPCPPQTYTAHANGLSKCLPCGVCDPDMGLLTWQECSSWKDTVCRCIPGYFCENQDGSHCSDCLQHTTCPPGQRVEKRGTHDQDTVCADCLTGTFSLGGTQEECLPWTNCSAFQQEVRRGTNSTDTTCSSQVVYYVVSILLPLVIVGAGIAGFLICTRRHLHTSSVAKELEPFQEQQENTIRFPVTEVGFAETEEETASN [chain 2 T99D], the ratio to parent is 0.7. The figure for chain 2 QPSCDQEEFLVGDECCPMCNPGYHVKQVCSEHTGTVCAPCPPQTYTAHANGLSKCLPCGVCDPDMGLLTWQECSSWKDTVCRCIPGYFCENQDGSHCSTCLQHTTCPPGQRVEKRGTHDQDTVCADCLTGTFSLGGTQEECLPWTNCSAFQQEVRRGTNSTDTTCSSQVVYYVVSILLPLVIVGAGIAGFLICTRRHLHTSSVAKELEPFQEQQENTIRFPVTEVGFAETEEETASN [chain 2 R5D] is 1.1. Then chain 2 QPSCRQEEFLVGDECCPMCNPGYHVKQVCSEHTGTVCAPCPPQTYTAHANGASKCLPCGVCDPDMGLLTWQECSSWKDTVCRCIPGYFCENQDGSHCSTCLQHTTCPPGQRVEKRGTHDQDTVCADCLTGTFSLGGTQEECLPWTNCSAFQQEVRRGTNSTDTTCSSQVVYYVVSILLPLVIVGAGIAGFLICTRRHLHTSSVAKELEPFQEQQENTIRFPVTEVGFAETEEETASN [chain 2 L52A], with 0.7; and chain 2 QPSCRQEEFLVGDECCPMCNPGYHVKQVCSEHTGTVCAPCPPQTYTAHANGLSKCAPCGVCDPDMGLLTWQECSSWKDTVCRCIPGYFCENQDGSHCSTCLQHTTCPPGQRVEKRGTHDQDTVCADCLTGTFSLGGTQEECLPWTNCSAFQQEVRRGTNSTDTTCSSQVVYYVVSILLPLVIVGAGIAGFLICTRRHLHTSSVAKELEPFQEQQENTIRFPVTEVGFAETEEETASN [chain 2 L56A], with 0.8. The figure for chain 2 QPSCRQEEFLVGDECCPMCNPGYHVKQVCAEHTGTVCAPCPPQTYTAHANGLSKCLPCGVCDPDMGLLTWQECSSWKDTVCRCIPGYFCENQDGSHCSTCLQHTTCPPGQRVEKRGTHDQDTVCADCLTGTFSLGGTQEECLPWTNCSAFQQEVRRGTNSTDTTCSSQVVYYVVSILLPLVIVGAGIAGFLICTRRHLHTSSVAKELEPFQEQQENTIRFPVTEVGFAETEEETASN [chain 2 S30A] is 1. With chain 2 QPSCRQEEFLVGDECCPMCNPGYHVKQVCSEHTGDVCAPCPPQTYTAHANGLSKCLPCGVCDPDMGLLTWQECSSWKDTVCRCIPGYFCENQDGSHCSTCLQHTTCPPGQRVEKRGTHDQDTVCADCLTGTFSLGGTQEECLPWTNCSAFQQEVRRGTNSTDTTCSSQVVYYVVSILLPLVIVGAGIAGFLICTRRHLHTSSVAKELEPFQEQQENTIRFPVTEVGFAETEEETASN [chain 2 T35D], the ratio to parent is 0.3. Consider chain 2 QPSCRQEEFLVGDECCPMCNPGYHVKQVCSEHTGTVCAPCPPQTYTAHANGLSKCLPCGVCDPDMGLLTWQECSSWKDTVCRCIPGYFCENQDGSHCDTCLQHTTCPPGQRVEKRGTHDQDTVCADCLTGTFSLGGTQEECLPWTNCSAFQQEVRRGTNSTDTTCSSQVVYYVVSILLPLVIVGAGIAGFLICTRRHLHTSSVAKELEPFQEQQENTIRFPVTEVGFAETEEETASN [chain 2 S98D], for which the ratio to parent turned out to be 0.8.

With chain 2 QPSCRQEEFLVGDECCPMCNPGYHVKQVCSEHTGTVCWPCPPQTYTAHANGLSKCLPCGVCDPDMGLLTWQECSSWKDTVCRCIPGYFCENQDGSHCSTCLQHTTCPPGQRVEKRGTHDQDTVCADCLTGTFSLGGTQEECLPWTNCSAFQQEVRRGTNSTDTTCSSQVVYYVVSILLPLVIVGAGIAGFLICTRRHLHTSSVAKELEPFQEQQENTIRFPVTEVGFAETEEETASN [chain 2 A38W], the ratio to parent was 0.9.

Take chain 2 QPSCRQEEFLVGDECCPMCNPGYHVKQVCSEHTGTVCDPCPPQTYTAHANGLSKCLPCGVCDPDMGLLTWQECSSWKDTVCRCIPGYFCENQDGSHCSTCLQHTTCPPGQRVEKRGTHDQDTVCADCLTGTFSLGGTQEECLPWTNCSAFQQEVRRGTNSTDTTCSSQVVYYVVSILLPLVIVGAGIAGFLICTRRHLHTSSVAKELEPFQEQQENTIRFPVTEVGFAETEEETASN [chain 2 A38D]: the ratio to parent was determined as 1.1. The figure for chain 2 QPSCRQEAFLVGDECCPMCNPGYHVKQVCSEHTGTVCAPCPPQTYTAHANGLSKCLPCGVCDPDMGLLTWQECSSWKDTVCRCIPGYFCENQDGSHCSTCLQHTTCPPGQRVEKRGTHDQDTVCADCLTGTFSLGGTQEECLPWTNCSAFQQEVRRGTNSTDTTCSSQVVYYVVSILLPLVIVGAGIAGFLICTRRHLHTSSVAKELEPFQEQQENTIRFPVTEVGFAETEEETASN [chain 2 E8A] is 0.9. The figure for chain 2 QPSCRQERFLVGDECCPMCNPGYHVKQVCSEHTGTVCAPCPPQTYTAHANGLSKCLPCGVCDPDMGLLTWQECSSWKDTVCRCIPGYFCENQDGSHCSTCLQHTTCPPGQRVEKRGTHDQDTVCADCLTGTFSLGGTQEECLPWTNCSAFQQEVRRGTNSTDTTCSSQVVYYVVSILLPLVIVGAGIAGFLICTRRHLHTSSVAKELEPFQEQQENTIRFPVTEVGFAETEEETASN [chain 2 E8R] is 1; for chain 2 QPSCRQEEFLVGDECCPMCNPGYHVKQVCSEHTATVCAPCPPQTYTAHANGLSKCLPCGVCDPDMGLLTWQECSSWKDTVCRCIPGYFCENQDGSHCSTCLQHTTCPPGQRVEKRGTHDQDTVCADCLTGTFSLGGTQEECLPWTNCSAFQQEVRRGTNSTDTTCSSQVVYYVVSILLPLVIVGAGIAGFLICTRRHLHTSSVAKELEPFQEQQENTIRFPVTEVGFAETEEETASN [chain 2 G34A] it is 1.2.

chain 2 QPSCRQEEFLVGDECCPMCNPGYHVKQVCSEHTDTVCAPCPPQTYTAHANGLSKCLPCGVCDPDMGLLTWQECSSWKDTVCRCIPGYFCENQDGSHCSTCLQHTTCPPGQRVEKRGTHDQDTVCADCLTGTFSLGGTQEECLPWTNCSAFQQEVRRGTNSTDTTCSSQVVYYVVSILLPLVIVGAGIAGFLICTRRHLHTSSVAKELEPFQEQQENTIRFPVTEVGFAETEEETASN [chain 2 G34D]: the ratio to parent stood at 0.9. As to chain 2 QPSCRQEEFLVGDECCPMCNPGYHVKQVCSEHTGTDCAPCPPQTYTAHANGLSKCLPCGVCDPDMGLLTWQECSSWKDTVCRCIPGYFCENQDGSHCSTCLQHTTCPPGQRVEKRGTHDQDTVCADCLTGTFSLGGTQEECLPWTNCSAFQQEVRRGTNSTDTTCSSQVVYYVVSILLPLVIVGAGIAGFLICTRRHLHTSSVAKELEPFQEQQENTIRFPVTEVGFAETEEETASN [chain 2 V36D], the ratio to parent was 0.9. Then chain 2 QPSCRQEEFLVGDECCPMCNPGYHVKQVCSEHTGTACAPCPPQTYTAHANGLSKCLPCGVCDPDMGLLTWQECSSWKDTVCRCIPGYFCENQDGSHCSTCLQHTTCPPGQRVEKRGTHDQDTVCADCLTGTFSLGGTQEECLPWTNCSAFQQEVRRGTNSTDTTCSSQVVYYVVSILLPLVIVGAGIAGFLICTRRHLHTSSVAKELEPFQEQQENTIRFPVTEVGFAETEEETASN [chain 2 V36A], with 1. The figure for chain 2 QPSCRQEEFLVGDECCPMCNPGYHVDQVCSEHTGTVCAPCPPQTYTAHANGLSKCLPCGVCDPDMGLLTWQECSSWKDTVCRCIPGYFCENQDGSHCSTCLQHTTCPPGQRVEKRGTHDQDTVCADCLTGTFSLGGTQEECLPWTNCSAFQQEVRRGTNSTDTTCSSQVVYYVVSILLPLVIVGAGIAGFLICTRRHLHTSSVAKELEPFQEQQENTIRFPVTEVGFAETEEETASN [chain 2 K26D] is 1.1. Regarding chain 2 QPSCRQEEFLVGDECCPMCNPGYHVKQVCSEHTGTVCAPCPPQTYTAHAAGLSKCLPCGVCDPDMGLLTWQECSSWKDTVCRCIPGYFCENQDGSHCSTCLQHTTCPPGQRVEKRGTHDQDTVCADCLTGTFSLGGTQEECLPWTNCSAFQQEVRRGTNSTDTTCSSQVVYYVVSILLPLVIVGAGIAGFLICTRRHLHTSSVAKELEPFQEQQENTIRFPVTEVGFAETEEETASN [chain 2 N50A], the ratio to parent came out at 0.5.
